According to US20220403022A1 (Merck KGaA, published 2022):
Several values for one entry are separate records, joined by “and”; a condition that tells them apart may be missing. Equal entries are not always repeated.

T1: His-tagged human TIGIT (human, UniProt Q495A1 22-141)
T1 construct: soluble analyte in SPR
T1 sequence: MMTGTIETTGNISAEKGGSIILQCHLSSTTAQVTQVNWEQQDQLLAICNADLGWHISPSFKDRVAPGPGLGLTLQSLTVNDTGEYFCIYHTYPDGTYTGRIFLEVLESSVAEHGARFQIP

T2: CD226 (UniProt Q15762 19-247, limits assumed)
T2 construct: also called related family member protein CD226
T2 sequence (looked up): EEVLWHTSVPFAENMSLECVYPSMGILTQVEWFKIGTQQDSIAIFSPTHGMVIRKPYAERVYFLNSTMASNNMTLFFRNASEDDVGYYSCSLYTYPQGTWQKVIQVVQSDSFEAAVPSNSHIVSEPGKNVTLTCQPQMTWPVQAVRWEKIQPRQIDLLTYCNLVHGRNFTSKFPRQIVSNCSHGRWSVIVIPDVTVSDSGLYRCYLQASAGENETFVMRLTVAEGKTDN

T3: human TIGIT ECD expressed on the CHO-S cell surface (human, UniProt Q495A1 22-141)
T3 construct: sections 3.13 and 4.1 say only stably expressing human TIGIT; also called CHO-S-hTIGIT; CHO-S-huTIGIT
T3 sequence: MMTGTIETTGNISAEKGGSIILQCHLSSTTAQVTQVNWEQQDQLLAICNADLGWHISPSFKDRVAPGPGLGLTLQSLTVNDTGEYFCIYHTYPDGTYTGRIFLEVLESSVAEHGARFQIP

T4: human TIGIT on cells (primary T cells, transfected HEK293 cells, Jurkat reporter cells, NK cells) (human, UniProt Q495A1 22-244)
T4 sequence: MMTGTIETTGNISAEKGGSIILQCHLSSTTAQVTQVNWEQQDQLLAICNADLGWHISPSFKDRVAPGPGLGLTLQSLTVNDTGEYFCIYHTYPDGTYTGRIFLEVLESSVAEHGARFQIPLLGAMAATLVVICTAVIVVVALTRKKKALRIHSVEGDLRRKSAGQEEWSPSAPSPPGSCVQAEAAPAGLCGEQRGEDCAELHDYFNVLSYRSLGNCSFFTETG


Tests used:
[1] = target: T5, His-tagged cynomolgus monkey TIGIT (cynomolgus monkey, UniProt A0A7N9I9V4 89-209); test: SPR Biacore, antibody captured on anti-human Fc, His-tagged TIGIT injected
T5 construct: also called Cyno TIGIT; cynomolgus monkey TIGIT (Novoprotein cat. No. CP02)
Method: (§1) Binding affinities of anti-TIGIT hit candidate antibodies to human TIGIT and cynomolgus monkey TIGIT were measured by Surface Plasmon Resonance (SPR) using a GE Healthcare Biacore 4000 instrument and a GE Healthcare Biacore T200 instrument as follows. […] Antibodies were then captured on the CM5 biosensor chip to achieve approximately 200 response units (RU). Binding measurements were performed using the running HBS-EP+ buffer. 2-fold dilution series with starting concentration between 100 nM and 10 nM of His-tagged human and cynomolgus monkey (cyno) TIGIT proteins were injected at a flow rate of 30 μl/min at 25° C. Association rates (kon, M-1 s-1) and dissociation rates (koff, s-1) were calculated using a simple 1:1 Langmuir binding model (Biacore Evaluation Software). The equilibrium dissociation constant (KD, M) was calculated as the ratio of koff/kon.

[2] = target: T1, His-tagged human TIGIT; test: as above
Method: as §1

[3] = target: T6, cynomolgus monkey TIGIT ECD expressed on the CHO-S cell surface (cynomolgus monkey); test: flow cytometry on CHO-S cells expressing cynomolgus monkey TIGIT ECD
T6 construct: extracellular domain; also called CHO-S-cynoTIGIT

[4] = target: T7, PD-L1 (UniProt Q9NZQ7 19-238, limits assumed); test: ELISA EC50 assay
T7 construct: also called unrelated protein PD-L1

[5] = target: T2, CD226; test: ELISA EC50 assay
[6] = target: T3, human TIGIT ECD expressed on the CHO-S …; test: flow cytometry on CHO-S cells expressing human TIGIT ECD
[7] = target: T6, cynomolgus monkey TIGIT ECD expressed …; test: flow cytometry on CHO-S cells expressing cyno TIGIT ECD
[8] = target: T3, human TIGIT ECD expressed on the CHO-S …; test: cell-based or functional assay
[9] = target: T1, His-tagged human TIGIT; test: SPR, IgG captured on anti-human Fc, His-tagged human TIGIT injected
Method: (§2) Antibodies were then captured on the CM5 biosensor chip. Binding measurements were performed using the running HBS-EP+ buffer. Two-fold dilution series of his-tagged human TIGIT, with starting concentrations between 100 nM and 10 nM, were injected at a flow rate of 30 μl/min at 25° C. Dissociation rates (koff, s-1) were calculated using a simple 1:1 Langmuir binding model (Biacore Evaluation Software).

[10] = target: T3, human TIGIT ECD expressed on the CHO-S …; test: flow cytometry on CHO-S cells expressing human TIGIT ECD; remark: listed apart in the source
[11] = target: T1, His-tagged human TIGIT; test: SPR, IgG captured on anti-human Fc, His-tagged human TIGIT injected; remark: listed apart in the source
Method: as §2

[12] = target: T4, human TIGIT on cells (primary T cells, …); test: cell-based or functional assay
[13] = target: T3, human TIGIT ECD expressed on the CHO-S …; test: flow cytometry blocking assay on CHO-S-hTIGIT cells, competitor muCD112; competitor muCD112; muIgG2c version
[14] = target: T3, human TIGIT ECD expressed on the CHO-S …; test: flow cytometry blocking assay on CHO-S-hTIGIT cells, competitor muCD155-Fc; competitor muCD155-Fc; muIgG2c version

T7 sequence (Q9NZQ7 19-238 limits assumed): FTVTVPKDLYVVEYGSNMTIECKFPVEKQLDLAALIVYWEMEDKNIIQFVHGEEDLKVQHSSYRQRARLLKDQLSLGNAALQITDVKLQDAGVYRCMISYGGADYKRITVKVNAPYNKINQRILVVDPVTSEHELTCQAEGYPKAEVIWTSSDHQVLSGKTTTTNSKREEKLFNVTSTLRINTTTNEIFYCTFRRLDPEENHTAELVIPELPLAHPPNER
T5 sequence (A0A7N9I9V4 entry or part of it): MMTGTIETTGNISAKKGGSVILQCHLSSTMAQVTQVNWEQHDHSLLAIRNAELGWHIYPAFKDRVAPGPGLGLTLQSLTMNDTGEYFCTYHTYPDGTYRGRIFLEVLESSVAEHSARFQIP

Row | Kd [1] | koff [1] | kon [1] | Kd [2] | koff [2] | kon [2] | EC50 (read off the curve) [3] | binding result [4] | binding result [5] | EC50 (read off the curve) [6] | EC50 [7] | ADCC EC50, nM (Donor 1005-4464) [8] | ADCC EC50, nM (Donor 1102-7215) [8] | ADCC EC50, nM (Donor 1106-0557) [8] | koff [9] | EC50 [10] | koff [11] | EC50 [12] | IC50 [13] | IC50 [14] | Binder
1 | 0.0519 nM and 0.05 nM | 1.57e-05 s⁻¹ | 303000 M⁻¹ s⁻¹ | 0.0661 nM and 0.07 nM | 2.15e-05 s⁻¹ | 325000 M⁻¹ s⁻¹ | – | – | – | – | – | – | – | – | – | – | – | – | – | – | 7728B03 (antibody, V domains shown, constant regions correspond to those of H03-12) VH: QMQLVQSGSELKKPGASVKVSCKASGYTFTSYPMNWVRQAPGQGLEWMGWINTNTGNPTYAQGFTGRFVFSLDTSVSTAYLQISSLKAEDTAVYYCARTGGYSVDEYSFDIWGQGTTVTVSS VL: DIQLTQSPSFLSASVGDRVTITCRASQGISSYLAWYQQKPGKAPKLLIYAASTLQSGVPSRFSGSGSGTEFTLTISSLQPEDFATYYCHQTIFRPTFGGGTKVEIK
2 | 0.0211 nM and < 0.05 nM | 1.23e-05 s⁻¹ | 581000 M⁻¹ s⁻¹ | 0.0173 nM and < 0.05 nM | 1.33e-05 s⁻¹ | 767000 M⁻¹ s⁻¹ | – | – | – | – | – | – | – | – | – | – | – | – | – | – | 7729G05 (antibody, V domains shown, constant regions correspond to those of H03-12) VH: QVQLVQSGSELKKPGASVKVSCKASGYTFTSYPMNWVRQAPGQGLEWMGWINTNTGNPTYAQGFTGRFVFSLDTSVSTAYLQISSLKAEDTAVYYCARVGGFTVPEYAFDIWGQGTTVTVSS VL: DIRLTQSPSFLSASVGDRVTITCRASQGISSYLAWYQQKPGKAPKLLIYAASTLQSGVPSRFSGSGSGTEFTLTISSLQPEDFATYYCGQVMRYPAFGGGTKVEIK
3 | 1.41 nM and 1.4 nM | 0.000167 s⁻¹ | 118000 M⁻¹ s⁻¹ | 2.53 nM and 2.5 nM | 0.000274 s⁻¹ | 108000 M⁻¹ s⁻¹ | ~7 nM | no binding | no binding | ~9 nM | – | – | – | – | – | – | – | – | – | – | 3966C11 (antibody, human IgG1, V domains shown, constant regions correspond to those of H03-12 (human IgG1, kappa)) VH: EIQLVQSGSELKKPGASVKVSCKASGYTFTSYPMNWVRQAPGQGLEWMGWINTNTGNPTNAQGFTGRFVFSLDTSVSTAYLQISSLKAEDTAVYYCARVGGYGGYDYAFDIWGQGTMVTVSS VL: DIQLTQSPSFLSASVGDRVTITCRASQGISSYLAWYQQKPGKAPKLLIYAASTLQSGVPSRFSGSGSGTEFTLTISSLQPEDFATYYCQQLNSYPTFGGGTKLEIK

The next lines start with the binder.

Row | Binder | Kd [1] | koff [1] | kon [1] | Kd [2] | koff [2] | kon [2] | EC50 (read off the curve) [3] | binding result [4] | binding result [5] | EC50 (read off the curve) [6] | EC50 [7] | ADCC EC50, nM (Donor 1005-4464) [8] | ADCC EC50, nM (Donor 1102-7215) [8] | ADCC EC50, nM (Donor 1106-0557) [8] | koff [9] | EC50 [10] | koff [11] | EC50 [12] | IC50 [13] | IC50 [14]
4 | 3965D08 (antibody, human IgG1, V domains shown, constant regions correspond to those of H03-12 (human IgG1, kappa)) VH: EVQLVQSGSELKKPGASVKVSCKASGYTFTSYPMNWVRQAPGQGLEWMGWINTNTGNPTYAQGFTGRFVFSLDTSVSTAYLQISSLKAEDTAVYYCARTGYSGSYYWFDPWGQGTLVTVSS VL: DIRLTQSPSFLSASVGDRVTITCRASQGISSYLAWYQQKPGKAPKFLIYAASTLQSGVPSRFSGSGSGTEFTLTISSLQPEDFATYYCQQLNSYLTFGQGTRLEIK | 8.66 nM and 8.7 nM | 0.00565 s⁻¹ | 653000 M⁻¹ s⁻¹ | 10.3 nM | 0.00497 s⁻¹ | 482000 M⁻¹ s⁻¹ | ~3 nM | no binding | no binding | ~5 nM | – | – | – | – | – | – | – | – | – | –
5 | 3963H03 (antibody, human IgG1, kappa, V domains shown, fully human IgG1 kappa, B-cell cloning hit from OmniRat; also called 3963H03 VH; 3963H03 VK) VH: EIQLVQSGSELKKPGASVKVSCKASGYTFTSYPMNWVRQAPGQGLEWMGWINTNTGNPTYAQGFTGRFVFSLDTSVSTAYLQISSLKAEDTAVYYCARVGGYSVDEYAFDVWGQGTMVTVSS VL: AIRLTQSPSFLSASVGDRVTITCRASQGISSYLAWYQQKPGKAPKLLIYAASTLQSGVPSRFSGSGSGTEFTLTISSLQPEDFATYYCQQLNSYPTFGGGTKVEIKR | 1.45 nM and 1.5 nM | 0.000213 s⁻¹ | 147000 M⁻¹ s⁻¹ | 3.37 nM and 3.4 nM | 0.000407 s⁻¹ | 121000 M⁻¹ s⁻¹ | – | no binding | no binding | – | 3.6 nM | 0.028 nM | 0.069 nM | 0.08 nM | 0.00063 s⁻¹ | 4.7 nM | 0.00063 s⁻¹ | 6.3 µg/mL | – | –
6 | 3964A06 (antibody, human IgG1, V domains shown) VH: EVQLVQSGSELKKPGASVKVSCKASGYTFTAYPMNWVRQAPGQGLEWMGWINTNTGNPTYAQGFTGRFVFSLDTSVSTAYLQISSLKAEDTAVYYCARVGGYSVYDYAFDIWGQGTMVTVSS VL: DIQLTQSPSFLSASVGDRVTITCRASQGISSYLAWYQQKPGKAPKLLIYAASTLQSGVPSRFSGSGSGTEFTLTISSLQPEDFATYYCQQLNSYPTFGGGTKVEIK | 1.11 nM and 1.1 nM | 0.000122 s⁻¹ | 109000 M⁻¹ s⁻¹ | 2.62 nM and 2.6 nM | 0.000233 s⁻¹ | 89100 M⁻¹ s⁻¹ | ~8 nM | no binding | no binding | ~9 nM | – | – | – | – | – | – | – | – | – | –
7 | 3963H03-12-muIgG2c (antibody, V domains shown, also called version of 3963H03-12 with a murine immunoglobulin) VH: QVQLVQSGSELKKPGASVKVSCKASGYTFTSYPMNWVRQAPGQGLEWMGWINTNTGNPTYAQGFTGRFVFSLDTSVSTAYLQISSLKAEDTAVYYCARVGGYSVDEYAFDVWGQGTLVTVSS VL: DIQLTQSPSFLSASVGDRVTITCRASQGISSYLAWYQQKPGKAPKLLIYAASTLQSGVPSRFSGSGSGTEFTLTISSLQPEDFATYYCQQLSSYPTFGGGTKVEIK | – | – | – | – | – | – | – | – | – | – | – | – | – | – | – | – | – | – | 1.19 µg/mL | 0.291 µg/mL
